System: EG7 tumor cells
Assay: EG7 tumor challenge after intranasal immunization with OVA and αGalCer
Format: in vivo
Details: C57BL/6 mice
Protocol: To confirm whether αGalCer could be used as a nasal vaccine adjuvant inducing anticancer activity, C57BL/6 mice were immunized with 100 μg of OVA alone or together with αGalCer (0.125, 0.5, 2.0 μg) by the intranasal administration three times at one-week intervals. Two weeks after the final immunization, 3×10^6 EG7 tumor cells were subcutaneously inoculated in the left flank of the immunized mice. On the 14th day of the inoculation, the mice were sacrificed and the palpable tumors were weighed.

B1: OVA: model antigen given intranasally at 100 μg alone or together with αGalCer (protein, UniProt P01012 2-386, looked up)
Ovalbumin: GSIGAASMEFCFDVFKELKVHHANENIFYCPIAIMSALAMVYLGAKDSTRTQINKVVRFDKLPGFGDSIEAQCGTSVNVHSSLRDILNQITKPNDVYSFSLASRLYAEERYPILPEYLQCVKELYRGGLEPINFQTAADQARELINSWVESQTNGIIRNVLQPSSVDSQTAMVLVNAIVFKGLWEKAFKDEDTQAMPFRVTEQESKPVQMMYQIGLFRVASMASEKMKILELPFASGTMSMLVLLPDEVSGLEQLESIINFEKLTEWTSSNVMEERKIKVYLPRMKMEEKYNLTSVLMAMGITDVFSSSANLSGISSAESLKISQAVHAAHAEINEAGREVVGSAEAGVDAASVSEEFRADHPFLFCIKHIATNAVLFFGRCVSP
mice with tumor masses (100 μg OVA alone intranasal, 3×10^6 EG7 cells s.c., day 14): all mice
tumor weight compared with vehicle alone (OVA alone through the nasal cavity, p<0.05): significantly heavy

Reference: patent publication US20080317769A1, “Vaccine Composition Comprising Alpha-Galactosylceramide as an Adjuvant For Intranasal Administration” (priority 2005, published 2008)
